± gives the uncertainty stated by the source.

This series in a line: amyloid nucleation score (Sup35N fusion, yeast selection) (log enrichment); library NNK1; higher = more nucleation; inactive = no reads after selection. In a few lines: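 Three technical output replicates were used for random libraries. Psi-negative yeast expressing peptides of 20 random codons fused to Sup35N were induced with 100 μM copper sulfate for 24 hours and grown 7 days at 30°C on medium lacking adenine and uracil, and input and output plasmid inserts were Illumina-sequenced, excluding sequences with under 100 input reads. The nucleation score is the DiMSum log enrichment of output over input reads, centred on the mode score of non-aggregating sequences.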
Take SMSCVVHRGSSASCWMFYRN: the amyloid nucleation score is 0.784 ± 0.37.
MNTLYCWGKCGLVTSLVGLI registered an amyloid nucleation score of 0.059 ± 0.73.
As to SDEGLYPYLHLTFKTSTLWK, the amyloid nucleation score was 0.201 ± 0.66.
With GSYRLKCCTYLVGKY the figure was 1.73 ± 0.28.
With RPCFGFLGYNNAV the figure was 0.109 ± 1.4; with ISCVDWAIKCGVVGSLVSET, 0.681 ± 0.99.
With TWYHGSRMSLRVTGRILQCG the figure was -0.43 ± 1.1.
Consider LDTDFSPCRTAVLVAIMHRG, for which the amyloid nucleation score amounted to 0.415 ± 0.74.
IAPTFSYMMERSLFTVGYDM gave an amyloid nucleation score of -0.042 ± 0.41.
With LSCLYDDCC the figure was 1.05 ± 0.61.
With WCVWFVQISCMVRVGAKLNS, the amyloid nucleation score turned out to be 0.184 ± 0.38.
In turn, SKFSISRTHNSHLSYSGLGG registered an amyloid nucleation score of 0.056 ± 0.5.
In the case of CLTIGCWRFSF, the amyloid nucleation score was determined as 4.57 ± 0.093.
With TTVPSNV the figure was -0.189 ± 1.7.
In the case of IRISVAVHVIVMNYMYPYLI it was -0.44 ± 1.2.
With WTMNLLA the figure was -0.048 ± 0.16; with WLGYMDMDNGARQNQYSETG, -0.942 ± 1.4; with YLERIGATYMGG, 0.601 ± 0.4.
Take SPPSSNIFPCI: the amyloid nucleation score was 0.052 ± 0.69.
In the case of VDISIVWDVPHQVLTGGFY it was -0.531 ± 0.29.
In the case of WWSYRKCRALNRRFQFFSYR it was “inactive”; in that of FRSFLLPR, 0.644 ± 0.54; in that of NNCYLDTSLSNLIRDGSSPV, -0.453 ± 0.64.
GIRMRGVSDLSLLRM: the amyloid nucleation score amounted to 0.163 ± 0.77.
On to ILDVKAPR, for which the amyloid nucleation score came to 0.446 ± 0.64.
In the case of YTSKSMRGFSKKSLFDMTFK it was 0.126 ± 0.79; in that of FRKLAIFHLAE, 0.207 ± 0.69; in that of GCRGFLIPRMVYS, -0.398 ± 0.97.
In turn, WPCPVVRFLPWKNYISGYSF returned an amyloid nucleation score of 0.392 ± 0.64.
As for FWNLVF, the amyloid nucleation score was 1.36 ± 0.64.
In turn, RNCWGANLFDMWIRKSFR yielded an amyloid nucleation score of 0.067 ± 0.77.
With TIVSDGAQDFQHHS the entry was “inactive”.
Regarding KRTHSTLHK, the amyloid nucleation score came out at 0.36 ± 0.38.
MYVFRVLASSVWKSMMLFDL came in with an amyloid nucleation score of 0.146 ± 0.23.
Turning to THVSDFLWDVNVSGNNTCSR, the amyloid nucleation score was determined as 1.14 ± 0.37.
In the case of CLKHLWLRQSKEKVD, the amyloid nucleation score result is “inactive”.
In turn, ISPCDIYRHLSIKGQSCDLI showed an amyloid nucleation score of 0.004 ± 0.32.
CVRLHPSDWAFYRAPFNKHG registered an amyloid nucleation score of 0.659 ± 0.55.
For the substance SGMYRTNTAMFSFYDTTIVI, the amyloid nucleation score is -0.091 ± 0.84.
Substance LRCLANVDSIICNSV had an amyloid nucleation score of -0.071 ± 0.9.
Turning to SFFDVLFKITWYNRVLMC, the amyloid nucleation score was found to be 0.362 ± 0.79.
In the case of GVDGYDLRGLSWEVAKEFKS it was 0.73 ± 0.67; in that of ASLRLSTSLCEYGYRGRYTK, -0.05 ± 0.25.
In the case of KAEMFNYLTNHTP it was -0.033 ± 1.1; in that of TMSFSFF, 0.855 ± 0.28.
With LKYFYR the figure was 0.44 ± 0.34; with TNTFFLTILHPRFVKMGPCW, 4.55 ± 0.1.
NWVLGVAYRRLRHKCSMYRV showed an amyloid nucleation score of 0.387 ± 0.67.
The substance IDSYITNKGSRSAKCHPDDS returned an amyloid nucleation score of -0.701 ± 1.
NCYMT returned an amyloid nucleation score of 0.386 ± 0.31.
IDIWVLLMNHGMKASPGDLE had an amyloid nucleation score of -0.479 ± 0.42.
With FMSICPSTNGRCACRWLRM the figure was 0.857 ± 0.98.
With WSNTCRASYFRPCGCG the figure was 0.391 ± 0.39.
With WSVLCSFRSSSNQAFVFRVQ the figure was -0.827 ± 0.77; with CDINLRKDTGISHLNGLFNA, 0.755 ± 0.43.
For the substance GHLENPFDERASCWRITADG, the amyloid nucleation score was 1.25 ± 0.74.
In the case of CDTFYLLVLALTYWEWANLE it was -0.497 ± 0.99.
In the case of TYNEDEVPCLMLASDVRFSS it was 0.372 ± 0.64; in that of IKRTCYPLVRGVPNQIRNLK, -0.091 ± 0.68.
With PFHLF the figure was 0.831 ± 0.39; with GCYWIMAMGQILRRLEDAAG, 1.14 ± 0.72; with RIVQLFSRRNMRCFFIKE, 3.07 ± 0.09.
In turn, MLLIVPLFDSEVVWPGVVWT registered an amyloid nucleation score of -0.235 ± 0.66.
LQNSDVFHADLQIISPTFCP gave an amyloid nucleation score of -0.826 ± 1.8.
With YVQFCGQHARR the figure was -0.516 ± 1.7; with LVLAENCR, -0.672 ± 0.68.
The substance VSRTCIQYCDDDDRSKSRSS gave an amyloid nucleation score of 0.253 ± 0.23.
The substance YSSNWIMLIIRVMIHFFSSR displayed an amyloid nucleation score of 3.46 ± 0.17.
In the case of TYALITADI it was 0.193 ± 0.18; in that of ASLKCEKGVCGVFGWSGVGH, -0.687 ± 1.4; in that of HHMRCLGTLNNLCKCCFEER, 3.41 ± 0.11.
The substance LVVLLIRTNCVKRKEFGERA returned an amyloid nucleation score of -2.04 ± 2.4.
In the case of TISGLFLSRLYSKTMGGC it was 1.89 ± 0.62.
Turning to PSHYWNRVLLIWRLSGCVVY, the amyloid nucleation score was -0.145 ± 0.29.
In the case of KKMRGTFIRFIYRLFFLRYA, the amyloid nucleation score was found to be 0.656 ± 0.5.
In the case of SMAGEFWSVLFFCESIWGGD it was 4.83 ± 0.12.
With SRLEKKGNWPVYSTQAVWMT, the amyloid nucleation score is -0.421 ± 0.42.
Take GYARILKDLGYPFPYDLQHL: the amyloid nucleation score entry is “inactive”.
In the case of GIISASSVNTQRWTSGTNTC, the amyloid nucleation score entry was “inactive”.
Take HCPCGCYTPFLAKRMSSVLV: the amyloid nucleation score amounted to 0.362 ± 0.26.
As for TRVGLVPSLGDRSDNYIVRI, the amyloid nucleation score is 0.087 ± 0.39.
With LFFRIYDHCNEHEKCVV the entry was “inactive”; with AESWHVGKS, -0.593 ± 0.59; with TLVLYVKRCWESGLISNECF, -0.699 ± 1.5.
Take YKDIMHHVN: the amyloid nucleation score result is “inactive”.
Turning to GTRVR, the amyloid nucleation score is 1.51 ± 0.48.
On to RFLGIRTATMDMGSKERMWV, for which the amyloid nucleation score was 0.601 ± 0.44.
In turn, VSTIFHIGFVLKFRDYRESE yielded an amyloid nucleation score of 2.93 ± 0.18.
LTGFCHFYGSIFTSYMKSL: the amyloid nucleation score entry is “inactive”.
For the substance CIGNCYGWLSDLSWWSCPSS, the amyloid nucleation score came to 0.676 ± 0.3.
In the case of PARATMSSLRPTSNLPFFPA it was -0.459 ± 1.1.
In turn, AYSERTSGTMTRVWWDLRSR yielded an amyloid nucleation score of -0.795 ± 1.1.
On to CSQLLKLTQSAYLFFVNQDS, for which the amyloid nucleation score came out at 0.676 ± 0.52.
In turn, HKDVQGYVD yielded an amyloid nucleation score of 1.01 ± 0.97.
With IPLVVVNPSARFRLRTKIIR the figure was 0.908 ± 0.88; with GWHLHFC, 0.492 ± 0.22.
With EYNYLDDTCWLGQVGRWLWF the figure was 1.38 ± 0.28; with LVMGMHYSLVV, 0.125 ± 0.46; with LCCYAVYGLCLMHTYNWGCD, 0.564 ± 0.73.
For the substance LMYPSGQSKRWIYRLYMGYR, the amyloid nucleation score result was “inactive”.
In the case of RFSSQTFY it was -1.08 ± 2.4; in that of SFVFAVWFW, 0.181 ± 0.83.
Substance SLRMLCRLPSRKDRSWTDML had an amyloid nucleation score of 0.6 ± 0.32.

The record behind these values is the supplement of paper PMC12042874.
